US20220389118A1 (Chugai, published 2022)
Positions count from the first letter of the chain named. Numbers in names are those of the source. Read-outs that look alike come from different tables or passages of the source.

Key:
[1] = target: T1, human FcγRIIa type R (R131) extracellular domain with C-terminal His tag (human, UniProt P12318 34-217); assay: SPR (Biacore), antibody captured, FcγR analyte
T1 construct: extracellular domain; also called FcγRIIaR; not shown: His tag at the C terminus
T1 sequence (looked up): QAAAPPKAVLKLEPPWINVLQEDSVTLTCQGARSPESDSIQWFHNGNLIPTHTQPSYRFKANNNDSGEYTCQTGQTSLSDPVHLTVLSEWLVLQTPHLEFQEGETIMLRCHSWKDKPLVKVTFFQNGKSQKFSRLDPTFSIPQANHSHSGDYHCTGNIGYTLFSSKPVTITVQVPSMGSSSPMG

[2] = target: T2, human FcγRIIb extracellular domain with C-terminal His tag (human, UniProt P31994 43-217); assay: SPR (Biacore), antibody captured, FcγR analyte
T2 construct: extracellular domain; not shown: His tag at the C terminus
T2 sequence (looked up): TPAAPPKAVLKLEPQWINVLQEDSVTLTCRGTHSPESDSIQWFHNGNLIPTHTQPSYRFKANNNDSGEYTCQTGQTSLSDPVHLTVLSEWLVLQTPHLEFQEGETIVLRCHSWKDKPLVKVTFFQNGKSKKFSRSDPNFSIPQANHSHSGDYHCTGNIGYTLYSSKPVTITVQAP

[3] = target: T3, human FcγRIa extracellular domain with C-terminal His tag (human, UniProt P12314 16-292); assay: SPR (Biacore), antibody captured, FcγR analyte
T3 construct: not shown: His tag at the C terminus
T3 sequence (P12314 16-292): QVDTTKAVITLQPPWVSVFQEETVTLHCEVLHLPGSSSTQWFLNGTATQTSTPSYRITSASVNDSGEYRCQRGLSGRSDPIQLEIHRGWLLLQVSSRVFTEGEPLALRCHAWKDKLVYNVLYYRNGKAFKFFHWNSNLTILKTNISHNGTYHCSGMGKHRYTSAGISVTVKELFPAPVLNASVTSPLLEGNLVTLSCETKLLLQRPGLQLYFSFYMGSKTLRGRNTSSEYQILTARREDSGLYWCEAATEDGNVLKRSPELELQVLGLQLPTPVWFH

[4] = target: T2, human FcγRIIb extracellular domain with …; assay: SPR (Biacore); KD for FcγRIIaR divided by KD for FcγRIIb
[5] = target: T1, human FcγRIIa type R (R131) …; assay: SPR (Biacore); KD of IL6R-B3/IL6R-L divided by KD of this antibody
[6] = target: T2, human FcγRIIb extracellular domain with …; assay: as above
[7] = target: T4, soluble human IL-6 receptor (human, UniProt P08887 20-357); assay: SPR (Biacore T100), about 300 RU of antibody captured on a Protein A/G chip (CM5), human IL-6 receptor as analyte, pH 7.4, 1.2 mM CaCl2, 37 °C
T4 construct: also called hsIL-6R
T4 sequence: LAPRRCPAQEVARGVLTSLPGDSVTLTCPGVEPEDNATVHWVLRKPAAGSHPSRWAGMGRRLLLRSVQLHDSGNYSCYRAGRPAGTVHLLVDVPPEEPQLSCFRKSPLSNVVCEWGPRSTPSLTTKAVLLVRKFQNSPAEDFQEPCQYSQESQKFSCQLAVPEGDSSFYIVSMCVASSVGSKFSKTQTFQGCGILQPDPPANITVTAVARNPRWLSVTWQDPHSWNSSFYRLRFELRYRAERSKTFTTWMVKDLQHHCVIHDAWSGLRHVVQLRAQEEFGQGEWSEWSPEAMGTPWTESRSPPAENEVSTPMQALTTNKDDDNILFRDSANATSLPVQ
Description: These buffers were each used to dilute human IL-6 receptor. All measurements were carried out at 37° C.
Then, 10 mM glycine-HCl (pH 1.5) was injected at a flow rate of 30 μl/min for 30 seconds to regenerate the sensor chip.

[8] = target: T5, human FcγRIIb extracellular domain with C-terminal His tag (human, UniProt P31994 43-217); assay: SPR (Biacore); KD ratio against IL6R-B3/IL6R-L
T5 construct: extracellular domain; not shown: His tag at the C terminus
T5 sequence (looked up): T2 sequence (looked up)

[9] = target: T6, human FcγRIIa type H (allotype H131) extracellular domain with C-terminal His tag (human, UniProt P12318 34-217); assay: SPR (Biacore), antibody captured, FcγR analyte
T6 construct: extracellular domain; also called FcγRIIaH; FcγRIIa H type; not shown: His tag at the C terminus
T6 sequence (looked up): T1 sequence (looked up) with R134H

[10] = target: T5, human FcγRIIb extracellular domain with …; assay: SPR (Biacore), antibody captured, FcγR analyte; remark: listed apart in the source
[11] = target: T7, human FcγRIIIa type V (allotype V158) extracellular domain with C-terminal His tag (human, UniProt P08637 17-208); assay: SPR (Biacore), antibody captured, FcγR analyte
T7 construct: extracellular domain; also called FcγRIIIaV; FcγRIIIa V type; not shown: His tag at the C terminus
T7 sequence (P08637 17-208 F176V): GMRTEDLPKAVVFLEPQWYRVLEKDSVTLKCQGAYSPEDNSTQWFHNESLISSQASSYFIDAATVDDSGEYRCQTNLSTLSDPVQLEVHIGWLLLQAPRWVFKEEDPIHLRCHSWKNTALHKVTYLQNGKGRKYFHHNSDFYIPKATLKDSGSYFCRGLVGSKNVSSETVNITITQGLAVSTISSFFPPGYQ

[12] = target: T8, human FcγRIa extracellular domain with C-terminal His tag (human, UniProt P12314 16-292); assay: SPR (Biacore), antibody captured, FcγR analyte; remark: listed apart in the source
T8 construct: not shown: His tag at the C terminus
T8 sequence (P12314 16-292): as the sequence (P12314 16-292) above

[13] = target: T3, human FcγRIa extracellular domain with …; assay: SPR (Biacore), antibody captured, FcγR analyte; remark: listed apart in the source
[14] = target: T9, human FcγRIIa type R (allotype R131) extracellular domain with C-terminal His tag (human, UniProt P12318 34-217); assay: SPR (Biacore), antibody captured, FcγR analyte
T9 construct: extracellular domain; also called FcγRIIaR; FcγRIIa R type; not shown: His tag at the C terminus
T9 sequence (looked up): T1 sequence (looked up)

[15] = target: T10, human FcγRIIa type R extracellular domain with C-terminal His tag (human, UniProt P12318 34-217); assay: SPR, Ref. Ex. 25
T10 construct: extracellular domain; also called FcγRIIaR; FcγRIIa R
T10 sequence (looked up): T1 sequence (looked up)

[16] = target: T11, human FcγRIIa type H extracellular domain with C-terminal His tag (human, UniProt P12318 34-217); assay: SPR, Ref. Ex. 25
T11 construct: extracellular domain; also called FcγRIIaH; FcγRIIa H
T11 sequence (looked up): T1 sequence (looked up) with R134H

[17] = target: T12, human FcγRIIIa type V extracellular domain with C-terminal His tag (human, UniProt P08637 17-208); assay: SPR, Ref. Ex. 25
T12 construct: extracellular domain; also called FcγRIIIaV; FcγRIIIa V type
T12 sequence (P08637 17-208 F176V): as the sequence (P08637 17-208 F176V) above

[18] = target: T1, human FcγRIIa type R (R131) …; assay: SPR (Biacore), antibody captured, FcγR analyte; remark: listed apart in the source
[19] = target: T13, human FcγRIIa type H (H131) extracellular domain with C-terminal His tag (human, UniProt P12318 34-217); assay: SPR (Biacore), antibody captured, FcγR analyte
T13 construct: extracellular domain; also called FcγRIIaH; not shown: His tag at the C terminus
T13 sequence (looked up): T1 sequence (looked up) with R134H

[20] = target: T3, human FcγRIa extracellular domain with …; assay: SPR (Biacore), antibody captured, FcγR analyte; remark: listed apart in the source
[21] = target: T2, human FcγRIIb extracellular domain with …; assay: SPR (Biacore), antibody captured, FcγR analyte; remark: listed apart in the source
[22] = target: T14, human FcγRIIIa type V (V158) extracellular domain with C-terminal His tag (human, UniProt P08637 17-208); assay: SPR (Biacore), antibody captured, FcγR analyte
T14 construct: extracellular domain; also called FcγRIIIaV; not shown: His tag at the C terminus
T14 sequence (P08637 17-208 F176V): as above

B1: IL6R-BP478/IL6R-L (antibody)
heavy: QVQLQESGPGLVKPSETLSLTCAVSGHSISHDHAWSWVRQPPGEGLEWIGFISYSGITNYNPSLQGRVTISRDNSKNTLYLQMNSLRAEDTAVYYCARSLARTTAMDYWGEGTLVTVSSASTKGPSVFPLAPCSRSTSESTAALGCLVKDYFPEPVTVSWNSGALTSGVHTFPAVLQSSGLYSLSSVVTVPSSSLGTKTYTCNVDHKPSNTKVDKRVESKYGPPCPPCPAPDLLGDDSVFLFPPKPKDTLMISRTPEVTCVVVDVSDEDGEVKFNWYVDGVEVHNAKTKPREEQDNSTYRVVSVLTVLHQDWLNGKEYKCKVSNKALPRPIEKTISKAKGQPREPQVYTLPPSRDELTKNQVSLTCLVKGFYPSDIAVEWESNGQPENNYKTTPPVLDSDGSFFLYSKLTVDKSRWQQGNVFSCSVMHEALHNHYTQESLSLSP
light: not shown
notes: copies: 2 + 2
[1]
  Kd: 540 nM
[2]
  Kd: 19 nM
[3]
  Kd: 7.7 nM
[4]
  KD(IIaR)/KD(IIb): 28
[5]
  KD(IIaR) of parent polypeptide/KD(IIaR) of altered polypeptide: 2
[6]
  KD(IIb) of parent polypeptide/KD(IIb) of altered polypeptide: 161

B2: 6RpH#02 (antibody, human IgG1, kappa, V domains shown)
VH: QVQLVQSGAEVKKPGSSVKVSCKASGGTFSSYAISWVRQAPGQGLEWMGGIIPIFGTANYAQKFQGRVTITADESTSTAYMELSSLRSEDTAVYYCMINGVWEGGMDVWGQGTTVTVSS
VL: DIQMTQSPSSLSASVGDRVTITCRASQSIHSHLNWYQQKPGKAPKLLIYHASKLQSGVPSRFSGSGSGTDFTLTISSLQPEDFATYYCQQHGNSPLTFGQGTKVEIKR
[7]
  binding result: binds

B3: IL6R-BP198/IL6R-L (antibody, human IgG1, kappa)
heavy: QVQLQESGPGLVKPSETLSLTCAVSGHSISHDHAWSWVRQPPGEGLEWIGFISYSGITNYNPSLQGRVTISRDNSKNTLYLQMNSLRAEDTAVYYCARSLARTTAMDYWGEGTLVTVSSASTKGPSVFPLAPSSKSTSGGTAALGCLVKDYFPEPVTVSWNSGALTSGVHTFPAVLQSSGLYSLSSVVTVPSSSLGTQTYICNVNHKPSNTKVDKKVEPKSCDKTHTCPPCPAPDYLGGDSVFLFPPKPKDTLMISRTPEVTCVVVDVSDEDGEVKFNWYVDGVEVHNAKTKPREEQYNSTYRVVSVLTVLHQDWLNGKEYKCKVSNAALPKPIEKTISKAKGQPREPQVYTLPPSRDELTKNQVSLTCLVKGFYPSDIAVEWESNGQPENNYKTTPPVLDSDGSFFLYSKLTVDKSRWQQGNVFSCSVMHEALHNHYTQESLSLSP
light: not shown
notes: copies: 2 + 2
[8]
  KD(IIb) of parent polypeptide/KD(IIb) of altered polypeptide: 15.7
[9]
  Kd: 20000 nM
[10]
  Kd: 200 nM
[11]
  Kd: 44000 nM
[12]
  Kd: 11 nM

B4: IL6R-BP267/IL6R-L (antibody, human IgG1, kappa)
heavy: B3 heavy with Y236L, G239D, D270E, A328K, K332A
light: not shown
notes: alterations counted against IL6R-B3; copies: 2 + 2
[13]
  Kd: 4 nM

B5: IL6R-BP223/IL6R-L (antibody, human IgG1, kappa)
heavy: B3 heavy with D235E, G239D, K332R
light: not shown
notes: copies: 2 + 2
[14]
  Kd: 600 nM

B6: IL6R-PD087/IL6R-L (antibody, human IgG1, kappa)
heavy: B3 heavy with D235E, Y236L, G239M, M254Y, D270H, G273P, A328K, K332A, N436Y, E441K
light: not shown
notes: also called P238D/G237M; G237M/P238D; copies: 2 + 2
[15]
  Kd: 22000 nM
[16]
  Kd: 20000 nM
[17]
  Kd: 37000 nM

B7: IL6R-BP469/IL6R-L (antibody, human IgG1, kappa)
heavy: B3 heavy with Y236L, G239D, Y298D, A328K, K332R, E335S
light: not shown
notes: E333S introduced into IL6R-BP230; copies: 2 + 2
[18]
  Kd: 600 nM

B8: IL6R-BP470/IL6R-L (antibody, human IgG1, kappa)
heavy: B3 heavy with Y236L, G239D, Y298D, A328K, K332R, E335T
light: not shown
notes: E333T introduced into IL6R-BP230; copies: 2 + 2
[19]
  Kd: 10000 nM

B9: IL6R-BP384/IL6R-L (antibody, human IgG1, kappa)
heavy: B3 heavy with Y236L, G239D, Y298D, A328K, K332R, K336R
light: not shown
notes: K334R introduced into IL6R-BP230; copies: 2 + 2
[20]
  Kd: 3 nM

B10: IL6R-BP468/IL6R-L (antibody, human IgG1, kappa)
heavy: B3 heavy with Y236L, G239D, Y298D, A328K, K332R, K336T
light: not shown
notes: copies: 2 + 2
[21]
  Kd: 40 nM

B11: IL6R-BP462/IL6R-L (antibody, human IgG1, kappa)
heavy: B3 heavy with Y236L, G239D, S269A, D270E, A328K, K332R, P398V
light: not shown
notes: P396V introduced into IL6R-BP423; copies: 2 + 2
[22]
  Kd: 9000 nM
